Reference: patent US20110293610A1 (published 2011)

T1: TNF-beta (human, UniProt P01374 35-205)
T1 construct: also called TNFβ; Tumour Necrosis Factor-beta
T1 sequence (looked up): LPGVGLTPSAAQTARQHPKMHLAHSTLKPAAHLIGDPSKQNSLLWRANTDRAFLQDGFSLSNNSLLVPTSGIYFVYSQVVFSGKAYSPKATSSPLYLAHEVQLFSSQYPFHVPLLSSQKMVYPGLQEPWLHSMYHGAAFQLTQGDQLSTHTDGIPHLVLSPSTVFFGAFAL


Columns and labels:
[1] = molecular target: T2, biotinylated B Lymphocyte Stimulator, soluble form (human, UniProt Q9Y275 134-285, biotinylated with NHS-biotin, molar ratio 20:1 biotin:protein); test: phage scFv, receptor binding inhibition on IM9 cells
T2 construct: also called bio-B Lymphocyte Stimulator; free B Lymphocyte Stimulator
Protocol: All of the unique phage scFvs from panel 2 were assessed for their ability to inhibit B Lymphocyte Stimulator binding to its cognate receptor on IM9 cells. The biotinylation of B Lymphocyte Stimulator, maintenance of IM9 cells and receptor binding inhibition assay were performed as described in Example 3.

[2] = molecular target: T3, B Lymphocyte Stimulator, soluble form (human) (human, UniProt Q9Y275 134-285, biotinylated with NHS-biotin where used as biotinylated B Lymphocyte Stimulator); test: phage ELISA
T3 construct: Coated on plastic, captured on streptavidin plates, amine-coupled to a CM5 chip or free in solution, depending on the assay; also called BLyS; immobilized B Lymphocyte Stimulator

TNF-alpha = molecular target: T4, TNF-alpha (human, UniProt P01375 77-233); test: phage ELISA
T4 construct: also called TNFα; TNF-α

TRAIL = molecular target: T5, TRAIL (human, UniProt P50591 114-281); test: phage ELISA
T5 construct: also called TNF-related apoptosis inducing ligand

LIGHT = LIGHT (human, UniProt O43557 74-240, limits assumed); test: phage ELISA
TNF-beta = molecular target: T1, TNF-beta; test: phage ELISA

Sequence of LIGHT (O43557 74-240 limits assumed): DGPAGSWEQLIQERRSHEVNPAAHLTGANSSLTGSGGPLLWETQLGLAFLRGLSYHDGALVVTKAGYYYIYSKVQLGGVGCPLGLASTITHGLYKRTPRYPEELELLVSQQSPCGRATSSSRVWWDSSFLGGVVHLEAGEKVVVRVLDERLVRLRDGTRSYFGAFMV
T4 sequence (P01375 77-233 limits assumed): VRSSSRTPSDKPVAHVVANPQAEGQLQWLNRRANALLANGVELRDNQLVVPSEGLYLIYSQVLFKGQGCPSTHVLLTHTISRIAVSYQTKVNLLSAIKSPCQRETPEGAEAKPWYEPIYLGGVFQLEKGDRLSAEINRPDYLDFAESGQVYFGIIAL
T5 sequence (P50591 114-281 limits assumed): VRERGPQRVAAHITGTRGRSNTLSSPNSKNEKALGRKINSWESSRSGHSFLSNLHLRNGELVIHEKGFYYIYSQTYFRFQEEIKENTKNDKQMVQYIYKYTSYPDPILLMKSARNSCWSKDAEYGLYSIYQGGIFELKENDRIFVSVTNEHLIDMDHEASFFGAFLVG

| Binder | binding result [1] | binding result [2] | binding result (TNF-alpha) | binding result (TRAIL) | binding result (LIGHT) | binding result (TNF-beta) |
| --- | --- | --- | --- | --- | --- | --- |
| I078D08 (scFv) scFv: QVNLRESGGGLVQPGGSLRLSCAASGFTFSSYWMSWVRQAPGKGLEWVANIKQDGSEKYYVDSVKGRFTISRDNSKNTLYLQMNSLRAEDTAVYYCARDAQSYYDILTGYQSYAFDIWGQGTTVTVSSGGGGSGGGGSGGGGSSELTQDPAVSVALGQTVRITCQGDSLRSYYTNWFQQKPGQAPLLVVYAKNKRPSGIPDRFSGSSSGNTASLTITGAQAEDEADYYCHSRDSSGNHVLFGGGTKLTVLG | binds |  |  |  |  |  |
| I026C04 (scFv) scFv: QVQLVQSGAEVKKPGSSVKVSCRASGGSFNHAISWVRQAPGRGLEWMGGILPMYGTANYAQKFQGRVTITADKLTNTVYMDLSRLRYEDTAVYYCARELGLSIVGATTGALDMWGKGTLVTVSSGGGGSGGGGSGGGGSAQSVLTQPPSVSAAPGQKVTISCSGSSSNIGNNYVSWYQQIPGTAPKLLIYENNKRPSGIPDRFSGSKSGASATLDITGLQTGDEADYYCGTWHSSQVVFGGGTKLTVLG | binds |  |  |  |  |  |
| I025B06 (scFv) scFv: QVQLVQSGAEVKKPGSSVKVSCRASGGSFNHAISWVRQAPGRGLEWMGGILPMYGTANYAQKFQGRVTITADKLTNTVYMDLSRLRYEDTAVYYCARELGLSIVGATTGALDMWGKGTLVTVSSGGGGSGGGGSGGGGSAQSVLTQPPSVSAAPGQKVTISCSGSSSNIGNNYVSWYQQIPGTAPKLLIYENNKRPSGIPDRFSGSKSGASAALDITGLQTGDEADYYCGTWHSSQVVFGGGTKLTVLG | binds |  |  |  |  |  |
| I025B09 (scFv) scFv: QVHLVQSGAEVKKPGSSVKVSCRASGGSFNHAISWVRQAPGRGLEWMGGILPMYGTANYAQKFQGRVTITADKLTNTVYMDLSRLRYEDTAVYYCARELGLSIVGATTGALDMWGKGTLVTVSSGGGGSGGGGSGGGGSAQSVLTQPPSVSAAPGQKVTISCSGSSSNIGNNYVSWYQQIPGTAPKLLIYENNKRPSGIPDRFSGSKSGASATLDITGLQTGDEADYYCGTWHSSQVVFGGGTKLTVLG | binds |  |  |  |  |  |
| I075A02 (scFv) scFv: QVQLVQSGAEVKKPGSSVKVSCRASGGSFNHAISWVRQAPGRGLEWMGGILPMYGTANYAQKFQGRVTITADKLTNTVYMDLSRLRYEDTAVYYCARELGLSIVGATTGALDMWGRGTLVTVSSGGGGSGGGGSGGGGSAQSVVTQPPSASGTPGQRVTVSCSGGRSNIGSNTVSWYQQLPGTAPKLLIYSNDERPSGVPDRFSGSNSGTSASLAISGLQSEDEADYYCAAWDDSLNGVAFGGGTKLTVLG | binds |  |  |  |  |  |
| I065D04 (scFv) scFv: QVQLQESGPGLVKPSETLSLTCTVSGGSISSGYYWGWVRQPPGQGLEWIGSIYHSGSTYHNPSLKSRVTISMDTSKNQFSLNLNSVTAADTAVYYCARGKGYYDILTGYYRDNWFDPWGRGTLVTVSSGGGGSGGGGSGGGGSQSVLTQPASVSGSPGQSITISCTGTSSDVGGYNYVSWYQQHPGKAPKLMIYEGSKRPSGVSNRFSGSKSGNTASLTISGLQAEDEADYYCSSYTTRSTRVFGGGTKLTVLG [I065D04, listing 1 of 2 here] |  | binds | no binding | no binding | no binding | no binding |
| I071B03 (scFv) scFv: QVQLQQSGAEVKKPGASVKVSCKASGYTFTKYTMHWVRQAPGQGPEWMGWINGGSGDTKYSRKFQGRVTITKDTSASAAYMELSSLGSEDTALYYCARATYDPLTGYSFDGFDIWGQGTMVTVSSGGGGSGGGGSGGGGSQSVLTQPASVSGSPGQSITISCTGTSSDVGGYNYVSWYQQHPGKAPKLMIYEGSKRPSGVSNRFSGSKSGNTASLTISGLQAEDEADYYCSSYTTRSTRVFGGGTKLTVLD | binds |  |  |  |  |  |
| I068C08 (scFv) scFv: QVQLQQSGAEVKKPGSSVKVSCQASGGSFSREGISWVRQAPGHGLEWMGRIIPVLGVADYAQKFQGRVKISVDRLTSVAYMELTSLRFEDTAVYYCAREGMNDFINSHHYYTMDAWGQGTLVTVSSGGGGSGGGGSGGGGSAQAVLTQPSSVSGAPGQRVTISCTGSSSNIGAGYDVHWYQQLPGTAPKLLIYGNSNRPSGVPDRFSGSKSGTSASLAITGLQAEDEADYYCQSYDSSLSGSVFGGGTKLTVLG |  | binds | no binding | no binding | no binding | no binding |
| I069B07 (scFv) scFv: QVQLVQSGAEVKKPGASVKVSCKASGYTFTSYGISWVRQAPGQGLEWMGWISAYNGNTNYAQKLQGRVTMTTDTSTSTAYMELRSLRSEDTAVYYCARMEYDILTGYYGGYFDYWGQGTMVTVSSGGGGSGGGGSGGGGSQSVLTQPASVSGSPGQSITISCTGTSSDVGGYNYVSWYQQHPGKAPKLMIYEGSKRPSGVSNRFSGSKSGNTASLTISGLQAEDEADYYCSSYTTRSTRVFGGGTKLTVLG |  | binds | no binding | no binding | no binding | no binding |
| I064C07 (scFv) scFv: QVQLVQSGAEVKKPGSSVKVSCKASGGTFSSYAISWVRQAPGQGLEWMGGIIPIFGTANYAQKFQGRVTITADDLTRTAYMEMSSLKFEDTAVYYCASSEGTIFGVDWGRGTLVTVSSGGGGSGGGGSGGGGSDIQMTQSPSFLSASVGDRVTITCRASQGINNYLAWYQQKPGRAPKLLMYAASSLQSGVPSRFSGSGSGTDFTLTISSLQPEDFATYYCLQDSDYPLTFGGGTKLEIKR |  | binds | no binding | no binding | no binding | no binding |

Other lines, results leading:

| binding result [1] | binding result [2] | binding result (TNF-alpha) | binding result (TRAIL) | binding result (LIGHT) | binding result (TNF-beta) | Binder |
| --- | --- | --- | --- | --- | --- | --- |
| binds |  |  |  |  |  | I073F04 (scFv) scFv: QVQLQQSGAEVKKPGSSVKVSCKASGGTFRSYAFSWVRQAPGQGLEWMGYIVPVFGTATYAQNFQGRVTITADELTTTAFMELSSLTSEDTAVYYCARSLATRPLGMDVWGRGTTVTVSSGGGGSGGGGSGGGGSQSVLTQPASVSGSPGQSITISCTGTSSDVGGYNYVSWYQQHPGKAPKLMIYEGSKRPSGVSNRFSGSKSGNTASLTISGLQAEDEADYYCSSYTTRSTRVFGGGTKLTVLG |
| binds |  |  |  |  |  | I065D04 (scFv) scFv: QVQLQESGPGLVKPSETLSLTCTVSGGSISSGYYWGWVRQPPGQGLEWIGSIYHSGSTYHNPSLKSRVTISMDTSKNQFSLNLNSVTAADTAVYYCARGKGYYDILTGYYRDNWFDPWGRGTLVTVSSGGGGSGGGGSGGGGSQSVLTQPASVSGSPGQSITISCTGTSSDVGGYNYVSWYQQHPGKAPKLMIYEGSKRPSGVSNRFSGSKSGNTASLTISGLQAEDEADYYCSSYTTRSTRVFGGGTKLTVLG [I065D04, listing 2 of 2 here] |
|  | binds | no binding | no binding | no binding | no binding | I064C04 (scFv) scFv: QVQLVQSGAEVKKPGASVKVSCEASGYTFTSYGISWVRQAPGQGLEWMGWISTYNGNTRYPQKLQGRVTMTTDTSTSTAYMDLRSLRSDDTAVYYCARDGRLSYDILTGYYARDYYGMDDWGRGTMVTVSSGGGGSGGGGSGGGGSQSVLTQPASVSGSPGQSITISCTGTSSDVGGYNYVSWYQQHPGKAPKLMIYEGSKRPSGVSNRFSGSKSGNTASLTISGLQAEDEADYYCSSYTTRSTRVFGGGTKLTVLG |
|  | binds | no binding | no binding | no binding | no binding | I072B09 (scFv) scFv: QVQLQQSGAEVKKPGASVKVSCRASGYTFTKYTMHWVRQAPGQGPEWMGWINGGSGDTKYSRKFQGRVTITKDTSASAAYMELSSLGSEDTALYYCARATYDPLTGYSFDGFDIWGQGTLVTVSSGGGGSGGGGSGGGGSSELTQDPAVSVALGQTVRITCQGDSLRSYYTNWFQQKPGQAPLLVVYAKNKRPSGIPDRFSGSSSGNTASLTITGAQAEDEADYYCNSRDSSGNHVVFGGGTKLTVLD |
| binds |  |  |  |  |  | I003C06 (scFv) scFv: QVQLVQSGAEVKKPGSSVKVSCRASGGSFNHAISWVRQAPGRGLEWMGGILPMYGTANYAQKFQGRVTITADKLTNTVYMDLSRLRYEDTAVYYCARELGLSIVGATTGALDMWGKGTLVTVSSGGGGSGGGGSGGGGSALPVLTQPPSVSVAPGQTATLTCGGTNFGRQSVHWYQQKPGQAPVLAIYHDDVRPSGIPERLSGSKSGNTATLTISRVEAGDEAAYYCQVWDSGSDVVVFGGGTKLTVLG |
|  | binds | no binding | no binding | no binding | no binding | I068F03 (scFv) scFv: EVQLVQSGADVKKPGASVKVSCKASHYPFTTYGVSWVRQAPGQGLEWMGWISNYNGHTRYAPKFQGRVTLTTDTLTNTAFMELKSLTSDDTAIYYCARAGNEYGHTERPADYWGKGTMVTVSSGGGGSGGGGSGGGGSAQAVLTQPSSVSGAPGQRVTISCTGSSSNIGAGYDVHWYQQLPGTTPKLLISRNNNRPPGVPDRFSGSKSGTSASLAITGLQAEDEADYYCQSYDTTLRGWVFGGGTKVTVLG |
